Publication PMC2783235
Each block holds one substance with its values, some of them ahead of it.

Tests used:
[1] = target: A281C (single-Cys mutant of FT-HT-Xa) (S. cerevisiae) (UniProt D6VTK4); assay: cross-linking
[2] = target: A281C (single-Cys mutant of FT-HT-Xa) (S. cerevisiae) (UniProt D6VTK4); assay: cross-linking; remark: listed apart in the source
[3] = target: A281C (single-Cys mutant of FT-HT-Xa) (S. cerevisiae) (UniProt D6VTK4); assay: SDS-PAGE and western blot of membranes
[4] = target: A281C (single-Cys mutant of FT-HT-Xa) (S. cerevisiae) (UniProt D6VTK4); assay: cross-linking; remark: listed apart in the source
[5] = target: A285C (single-Cys mutant of FT-HT-Xa) (S. cerevisiae) (UniProt D6VTK4); assay: cross-linking
[6] = target: A285C (single-Cys mutant of FT-HT-Xa) (S. cerevisiae) (UniProt D6VTK4); assay: cross-linking; remark: listed apart in the source
[7] = target: A285C (single-Cys mutant of FT-HT-Xa) (S. cerevisiae) (UniProt D6VTK4); assay: SDS-PAGE and western blot of membranes
[8] = target: A285C (single-Cys mutant of FT-HT-Xa) (S. cerevisiae) (UniProt D6VTK4); assay: cross-linking; remark: listed apart in the source
[9] = target: L283C (single-Cys mutant of FT-HT-Xa) (S. cerevisiae) (UniProt D6VTK4); assay: cross-linking
[10] = target: L283C (single-Cys mutant of FT-HT-Xa) (S. cerevisiae) (UniProt D6VTK4); assay: cross-linking; remark: listed apart in the source
[11] = target: L283C (single-Cys mutant of FT-HT-Xa) (S. cerevisiae) (UniProt D6VTK4); assay: SDS-PAGE and western blot of membranes
[12] = target: L283C (single-Cys mutant of FT-HT-Xa) (S. cerevisiae) (UniProt D6VTK4); assay: cross-linking; remark: listed apart in the source
[13] = target: L284C (single-Cys mutant of FT-HT-Xa) (S. cerevisiae) (UniProt D6VTK4); assay: cross-linking
[14] = target: L284C (single-Cys mutant of FT-HT-Xa) (S. cerevisiae) (UniProt D6VTK4); assay: cross-linking; remark: listed apart in the source
[15] = target: L284C (single-Cys mutant of FT-HT-Xa) (S. cerevisiae) (UniProt D6VTK4); assay: SDS-PAGE and western blot of membranes
[16] = target: L284C (single-Cys mutant of FT-HT-Xa) (S. cerevisiae) (UniProt D6VTK4); assay: cross-linking; remark: listed apart in the source
[17] = target: L287C (single-Cys mutant of FT-HT-Xa) (S. cerevisiae) (UniProt D6VTK4); assay: cross-linking
[18] = target: L287C (single-Cys mutant of FT-HT-Xa) (S. cerevisiae) (UniProt D6VTK4); assay: cross-linking; remark: listed apart in the source
[19] = target: L287C (single-Cys mutant of FT-HT-Xa) (S. cerevisiae) (UniProt D6VTK4); assay: SDS-PAGE and western blot of membranes
[20] = target: L287C (single-Cys mutant of FT-HT-Xa) (S. cerevisiae) (UniProt D6VTK4); assay: cross-linking; remark: listed apart in the source
[21] = target: L289C (single-Cys mutant of FT-HT-Xa) (S. cerevisiae) (UniProt D6VTK4); assay: cross-linking
[22] = target: L289C (single-Cys mutant of FT-HT-Xa) (S. cerevisiae) (UniProt D6VTK4); assay: cross-linking; remark: listed apart in the source
[23] = target: L289C (single-Cys mutant of FT-HT-Xa) (S. cerevisiae) (UniProt D6VTK4); assay: SDS-PAGE and western blot of membranes
[24] = target: L289C (single-Cys mutant of FT-HT-Xa) (S. cerevisiae) (UniProt D6VTK4); assay: cross-linking; remark: listed apart in the source
[25] = target: S288C (single-Cys mutant of FT-HT-Xa) (S. cerevisiae) (UniProt D6VTK4); assay: cross-linking
[26] = target: S288C (single-Cys mutant of FT-HT-Xa) (S. cerevisiae) (UniProt D6VTK4); assay: cross-linking; remark: listed apart in the source
[27] = target: S288C (single-Cys mutant of FT-HT-Xa) (S. cerevisiae) (UniProt D6VTK4); assay: SDS-PAGE and western blot of membranes
[28] = target: S288C (single-Cys mutant of FT-HT-Xa) (S. cerevisiae) (UniProt D6VTK4); assay: cross-linking; remark: listed apart in the source
[29] = target: T282C (single-Cys mutant of FT-HT-Xa) (S. cerevisiae) (UniProt D6VTK4); assay: cross-linking
[30] = target: T282C (single-Cys mutant of FT-HT-Xa) (S. cerevisiae) (UniProt D6VTK4); assay: cross-linking; remark: listed apart in the source
[31] = target: T282C (single-Cys mutant of FT-HT-Xa) (S. cerevisiae) (UniProt D6VTK4); assay: SDS-PAGE and western blot of membranes
[32] = target: T282C (single-Cys mutant of FT-HT-Xa) (S. cerevisiae) (UniProt D6VTK4); assay: cross-linking; remark: listed apart in the source
[33] = target: V280C (single-Cys mutant of FT-HT-Xa) (S. cerevisiae) (UniProt D6VTK4); assay: cross-linking
[34] = target: V280C (single-Cys mutant of FT-HT-Xa) (S. cerevisiae) (UniProt D6VTK4); assay: cross-linking; remark: listed apart in the source
[35] = target: V280C (single-Cys mutant of FT-HT-Xa) (S. cerevisiae) (UniProt D6VTK4); assay: SDS-PAGE and western blot of membranes
[36] = target: V280C (single-Cys mutant of FT-HT-Xa) (S. cerevisiae) (UniProt D6VTK4); assay: cross-linking; remark: listed apart in the source
[37] = target: V286C (single-Cys mutant of FT-HT-Xa) (S. cerevisiae) (UniProt D6VTK4); assay: cross-linking
[38] = target: V286C (single-Cys mutant of FT-HT-Xa) (S. cerevisiae) (UniProt D6VTK4); assay: cross-linking; remark: listed apart in the source
[39] = target: V286C (single-Cys mutant of FT-HT-Xa) (S. cerevisiae) (UniProt D6VTK4); assay: SDS-PAGE and western blot of membranes
[40] = target: V286C (single-Cys mutant of FT-HT-Xa) (S. cerevisiae) (UniProt D6VTK4); assay: cross-linking; remark: listed apart in the source

Substance: A281C (single-Cys mutant of FT-HT-Xa) (from UniProt D6VTK4 1-431) (receptor)
percent dimer [1]: 11.3%
percent dimer [2]: 11.9%
percent dimer [3]: 16.8%
percent dimer [4]: 14.3%

Substance: A285C (single-Cys mutant of FT-HT-Xa) (from UniProt D6VTK4 1-431) (receptor)
percent dimer [5]: 17.7%
percent dimer [6]: 53.5%
percent dimer [7]: 16.5%
percent dimer [8]: 16.5%

Substance: L287C (single-Cys mutant of FT-HT-Xa) (from UniProt D6VTK4 1-431) (receptor)
percent dimer [17]: 16%
percent dimer [18]: 14.3%
percent dimer [19]: 16%
percent dimer [20]: 11.3%

Substance: S288C (single-Cys mutant of FT-HT-Xa) (from UniProt D6VTK4 1-431) (receptor)
percent dimer [25]: 12.6%
percent dimer [26]: 14.7%
percent dimer [27]: 14.7%
percent dimer [28]: 11.5%

Substance: T282C (single-Cys mutant of FT-HT-Xa) (from UniProt D6VTK4 1-431) (receptor)
percent dimer [29]: 11.7%
percent dimer [30]: 15.4%
percent dimer [31]: 11.7%
percent dimer [32]: 12%

Substance: V280C (single-Cys mutant of FT-HT-Xa) (from UniProt D6VTK4 1-431) (receptor)
percent dimer [33]: 12.4%
percent dimer [34]: 14.7%
percent dimer [35]: 15.3%
percent dimer [36]: 16.3%

Next, values leading:

percent dimer [9]: 10.7%
percent dimer [10]: 15.7%
percent dimer [11]: 16.6%
percent dimer [12]: 13.3%
Substance: L283C (single-Cys mutant of FT-HT-Xa) (from UniProt D6VTK4 1-431) (receptor)

percent dimer [13]: 15.3%
percent dimer [14]: 12%
percent dimer [15]: 15.2%
percent dimer [16]: 17.7%
Substance: L284C (single-Cys mutant of FT-HT-Xa) (from UniProt D6VTK4 1-431) (receptor)

percent dimer [21]: 40.9%
percent dimer [22]: 61%
percent dimer [23]: 26.8%
percent dimer [24]: 50.2%
Substance: L289C (single-Cys mutant of FT-HT-Xa) (from UniProt D6VTK4 1-431) (receptor)

percent dimer [37]: 15.9%
percent dimer [38]: 17%
percent dimer [39]: 15.6%
percent dimer [40]: 13.2%
Substance: V286C (single-Cys mutant of FT-HT-Xa) (from UniProt D6VTK4 1-431) (receptor)
